Measured values taken from the supplement of paper PMC9170038.

Test system: MS2 coat protein
Assay: apparent KD of MS2 coat protein; higher = weaker reporter binding
Conditions: Eterna round: R107
How it was run: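 Values are apparent KD, taken as the median for each design of fits to normalised binding curves from individual clusters. The designed RNA switches were transcribed on-chip from Illumina sequencing clusters and exposed to SNAP-549-labelled MS2 coat protein at twofold increasing amounts from 0.7 or 1.5 nM to 3 µM. Titration used 100 mM Tris-HCl pH 7.5, 80 mM KCl and 4 mM MgCl2, without or with constant ligand.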

[1] = input ligand: theophylline 20 uM
[2] = input ligand: theophylline 2 mM
[3] = input ligand: tryptophan 2.4 mM

Sequence | apparent KD of MS2 coat protein (input ligand: arginine 13.2 mM) [nM] | apparent KD of MS2 coat protein (input ligand: none) [nM] | apparent KD of MS2 coat protein [1] [nM] | apparent KD of MS2 coat protein [2] [nM] | apparent KD of MS2 coat protein [3] [nM]
GUAUAAAGAAAACUUUAUACAGUGGGUGAACGAGGACCGGUACGGCCGCCACUCGGACAUGAGGAUCACCCAUGUCCAUGUGAAA [AstrosExyTryA#9] | 14.4 | 14.3 | 13.9 | 17 | 37.2
GUAUAUAUGCGAAGGAGCGGGAAAUAUAUAUAUAUAAUCCUAACAUGAGGAUCACCCAUGUCCCAGGUAGGUCGCGCAUAUAUAU [12.B] | 68.7 | 69.6 | 86.9 | 83.6 | 76.1
GUCAGUGACUGAAGGAGCGACAUGAGGAUCACCCAUGUCUCCCGUUAUGGGAGUUCCUUAGGUCAGGUAGGUCGCAGUCACUGAC [#1 Exclusion - Arginine B Attempt #29 (Inspired by Omei)] | 174 | 123 | 163 | 188 | 95.7
GUCGCUGAGGGAAGGAGCGUGAAGACAUGAGGAUCACCCAUGUAGAGGCGCCGAAGGCGUUCGCAGGUAGGUCGCCCUCAGUGAC [#1 Same State - Arginine B Attempt #22 (HarryS)] | 42.4 | 19.3 | 23.2 | 16.7 | 16.8
GUCGGUACGUCGGCAAAGCCGAUGUGCCAGCGAGGACCGGUACGGCCGCCACUCGUACAUGAGGAUCACCCAUGUCCGGUCCGGC [Omei Trp SS A C v2] | 32.5 |  | 84.4 | 92.4 | 
GUGGAGACAUGAGAUACCAGUCUCUUUAACAUGAGGAUCACCCAUGUAAUGCUCCUCGGAGACCCUUGGCAGCUCAGUAUGAUGA [#09 Exclusion-TheophyllineB] | 32.2 |  | 71.7 |  | 34.4
GUUAUGAUAAGAAGGAGCGUCGAAAAUGGGUAAACAUGAGGAUCACCCAUGUAAAGGGAACGACAGGUAGGUCGCUUAUUAUAAC [AstromonsSSArgB#20] | 86.8 | 190 | 270 | 161 | 154
GUUGAGACCUCGGCCGCCACUCGCCAUGAGGAUCUCCCAUGUAACAUGAGGAUCACCCAUGUACUGAGGACCGGGAGGUCCUAGU [Same State Tryptophan B GF 15] | 17.2 | 17.4 | 34 | 33.5 | 65.6
GUUUAGAGCUCGGCCGCCACUCAAACAUGAGGAUCACCCAUGUAAAACAUGAGGAUCACCCAUGUGAGGACCGGGAGAAAUAAGA [Exclusion Tryptophan B GF7] | 242 | 337 | 370 | 435 | 420
UAAAACAUGAGGAUCACCCAUGUAAAAGAUACCAGAGUGAUGAUCCUCCCUUGGCAGCUUAACGCUGAUUGAUUACAAUCAGCGA [Mat - Same State Theophlline A - Mod of Eli - D21] | 75.4 |  | 124 |  | 53.3
UAACAUGAGGAUCACCCAUGUAAACUAAGUCGAGGACCGGUACGGCCGCCACUCGAAAUUGAAGAAUUGGCGGAAAAUGUAUGUU [JR_ExcTryptoA_Sub018] | 12 |  | 17.7 | 13.3 | 
UAAUAAGUACCGGUCCUCAGAUCCUCAUGACGAGGACCGGUACGGCCGCCACUCGAAACAUGAGGAUCACCCAUGUAAUAAUAAC [Brourdmod03] | 23 |  | 77 | 45.2 | 
UAGACGGCCGGAAGGAGCGGUACAUGAGGAUCACCCAUGUACUUCUGGGCAUCCGUAGUGUGCCAGGUAGGUCGCCGGUUGCGGG [XArg-B20] | 45.9 | 14.4 | 32.4 | 33.1 | 19.9
UAGCGAUAAUCUGAUACCAGACGUGUACUCUCCUCAGACAUGAGCAUCAGCCAUGUAUGCGUCCCUUGGCAGCAGAGAUAGGAGA [Theo B Ex t5b] | 16.9 | 16.1 | 24.5 | 36.7 | 16.9
UAGUUAGCGGCGGCCGCCACUCGAGAUAUAACAUGAUAUCAUAACAUGAGGAUCACCCAUGUCACGAGGACCGGGCCGAUCUUCA [Same State Typptophan B GF6] | 27.9 | 48.5 | 102 | 163 | 49.4
UAUAUAUAAACAUGAGGAUCACCCAUGUAACGAGGACCGGUACGGCCGCCACUCGGCCGGCAAGGGAGAGGACGGGAAACCGUCG [ETA NP+V+V2 #27] | 12.5 | 13.4 | 19.3 | 15.9 | 17.1
UAUAUAUAUAUGGAUACCAGCAGAGAAAACGUUUAUCCUAACAUGAGGAUCACCCAUGUAUGCCCUUGGCAGCUGUAUAUAUAUA [8.G] | 21.4 |  | 29.5 |  | 24.7
UAUCCACAUGAGGAUCACCCAUGUAAGGAAGGAGCGGUGAAUGCACCAGGUAGGUCGCCUUGCUGAGGACAGCCGGUGGAUUCGU [Exclusion - Arginine A (Freestyle 24)] | 14.7 | 17.7 | 17.9 | 21.9 | 16.2
UAUCGUCAGACGGCCGCCACUAGAACAUGAGGAUCACCCAUGUAAGUGGCCGGUCUCCUCAUGACUAGGACCGGGUCUGACGAAU [(Trp1)-(Ms2)-(T)'-(M)'-(Trp2)_Design18] | 9.69 |  | 14.1 | 10.9 | 

Sequence | apparent KD of MS2 coat protein (input ligand: arginine 13.2 mM) [nM] | apparent KD of MS2 coat protein (input ligand: none) [nM] | apparent KD of MS2 coat protein [1] [nM] | apparent KD of MS2 coat protein [2] [nM] | apparent KD of MS2 coat protein [3] [nM]
UCACAUGAGGAUCACCCAUGUACAGGCGAUACCAGCCGUACAUUGGGCCCUUGGCAGCGCACCGAGGACUUUUUAAGCAUCUCGG [Diatbeen] | 26.2 | 19.8 | 401 | 282 | 23.8
UCACAUGAGGAUCACCCAUGUCCAGGUGAAGGAGCGAUUAGGGAGUCAGGUAGGUCGCACCACAUGAGGAUCACCCAUGUGCCUG [EAA NP+V+V2 #8 DOUBLE] | 18.4 | 22.8 | 27.5 | 25.4 | 24.1
UCAGCACAUGAGGAUCACCCAUGUCGUGAUACCAGCCUGUGCGAAGGCCCUUGGCAGCACAGUCCCGAUUUGCUUAUAUGCACUU [theeternabot_sameState_MS2_Theo_A_48] | 32.4 |  | 61 |  | 34.4
UCGCCCAGAAAGGAUUCCUGGGAUAUGGAAGGAGCGCUGAUGCCAGCAGGUAGGUCGCCAACGGACAUGAGGAUCACCCAUGUAC [Same State - Arginine A (Freestyle 7)] | 15.4 | 17.3 | 25.7 | 21.7 | 18
UCGCCCAGGAUGGAAUCCUGGGAUAUGGAAGGAGCGCUGAUGCCAGCAGGUAGGUCGCCAACGGACAUGAGGAUCACCCAUGUAC [Same State - Arginine A (Freestyle 9)] | 17.7 | 19.1 | 28.8 | 21.2 | 18.6
UCGCUCUGGGUGAGAUCCGGAGAUAUGGAAGGAGCGCUGAUGCCAGCAGGUAGGUCGCCAACGGACAUGAGGAUCACCCAUGUAC [Same State - Arginine A (Freestyle 10)] | 25 | 52.4 | 64.2 | 34.5 | 39.8
UCGUGUCUAUUGGUUUAGCUUUAAUCGUUACGAGGACCGGUACGGCCGCCACUCGAUUUAACAUGAGGAUCACCCAUGUACUCUC [JR_ExcTryptoA_Sub012] | 17.5 |  | 26.6 | 21.4 | 
UCUAGUGCGGGAAGGAGCGCCAUACAUGAGGAUCACCCAUGUUGAGCAUGCUCGUGUACUAGGCAGGUAGGUCGCCCGCUCUACG [Radionle] | 28.8 | 27.2 | 30.9 | 23.5 | 23.3
UCUGCCGCGGCUCCGAUCCUCCUGUAGUUCCGAGGACCGGUACGGCCGCCACUCGUAGCACAUGAGGAUCACCCAUGUCUUGCGG [Tiqurabira] | 12.1 |  | 17.5 | 13 | 
UCUUGGUCCGCAAGGACCGUGAGUUGCGAUACCAGCACGGUAACGUGCCCUUGGCAGCGCACAUGAGGAUCACCCAUGUGGUGUU [#1 Exclusion - Theophylline A Attempt #15 (HarryS)] | 71.6 |  | 520 |  | 210
UCUUGGUCCGCAAGGACCUUGAGUUGCGAUACCAGCACGGUAACGUGCCCUUGGCAGCGCACAUGAGGAUCACCCAUGUGGUGUU [#1 Exclusion - Theophylline A Attempt #16 (HarryS)] | 82.3 |  | 348 |  | 170
UCUUUCUUUGUAGAUACCAGCGUGUUAUCUUUCUUUUGACAUGAGGAUCACCCAUGUAUAUGCCCUUGGCAGCUACAUAUUCUUU [#01 Same State - Theophylline B] | 18.1 |  | 23.6 |  | 18.2
UGACAGAUAACCGCUGGUGCUCUUGAGUUGCGAGGACCGGUACGGCCGCCACUCGACAACAUGAGGAUCACCCAUGUUGCGGGUC [Soleeror] | 38.3 | 146 | 89.5 | 146 | 85.1
UGACAUUGCUCAGAUACCAGACAUGAGCAUCAGCCAUGUACCAAGAGUACAUGUUAAAGUGUCCCUUGGCAGCUGAGCAAUGUCU [Mod of Eli's TheoBX5 #AlternateMS2 v3] | 56.4 | 70.9 | 193 | 603 | 72
UGACAUUGCUGCGAUACCAGACAUGAGGAUCACCCAUGUACCAAGGUAACCGAAAGGCAUGUCCCUUGGCAGCGCAGCAAUGUCU [MAT - Exclusion Theophlline B - Mod of Eli - D13] | 12.8 |  | 21 |  | 12.2
UGAGAUCCUCAUGAUACCAGUGUACUACAUGAGGAUCACCCAUGUAGCAACAUCUGUAGACACCCUUGGCAGCAUGAGACCACGU [Theo B SS t5] | 17.5 |  | 35.2 |  | 15.6
UGCGUACAUGAGGAUCACCCAUGUAUAGAUACCAGUCACCCAUGUGGCCCUUGGCAGCUAACAUGAGGAUCACUACAUGAGGAUC [Exclusion Theophylline A 3] | 24.3 |  | 72.2 |  | 32.7
UGGAAAGCACAUGAGGAUCACCCAUGUGAUACCAGCUGAAACUAAGGCCCUUGGCAGCACAUGGUACCAACCCUUUGGUAGUCCA [Vearedqu] | 10.9 |  | 19.9 |  | 10.3
